Drawing on PMC8041999 (2021), this text covers ratio to parent for 48 variants.

Sequences and labels used below:
B1: FLAG-tagged KIR2DL2, full-length, wild type, on 293T cells [human] / HLA-C*03:04-GL9 tetramer (phycoerythrin-conjugated) [modified: biotin (enzymatically, with biotin ligase)] [human] (parent complex)
chain 1: HEGVHRKPSLLAHPGRLVKSEETVILQCWSDVRFEHFLLHREGKFKDTLHLIGEHHDGVSKANFSIGPMMQDLAGTYRCYGSVTHSPYQLSAPSDPLDIVITGLYEKPSLSAQPGPTVLAGESVTLSCSSRSSYDMYHLSREGEAHECRFSAGPKVNGTFQADFPLGPATHGGTYRCFGSFRDSPYEWSNSSDPLLVSVIGNPSNSWPSPTEPSSKTGNPRHLHILIGTSVVIILFILLFFLLHRWCSNKKNAAVMDQESAGNRTANSEDSDEQDPQEVTYTQLNHCVFTQRKITRPSQRPKTPPTDIIVYAELPNAESRSKVVSCP
chain 2: not shown
chain 3: not shown
chain 4: GAVDPLLAL
B2: FLAG-tagged KIR2DL2, full-length, wild type, on 293T cells [human] / HLA-C*07:02-RL9 tetramer (phycoerythrin-conjugated) [modified: biotin (enzymatically, with biotin ligase)] [human | not stated] (parent complex)
chain 1: B1 chain 1
chain 2: not shown
chain 3: not shown
chain 4: RYRPGTVAL
B3: FLAG-tagged KIR2DL3, full-length, wild type, on 293T cells [human] / HLA-C*07:02-RL9 tetramer (phycoerythrin-conjugated) [modified: biotin (enzymatically, with biotin ligase)] [human | not stated] (parent complex)
chain 1: HEGVHRKPSLLAHPGPLVKSEETVILQCWSDVRFQHFLLHREGKFKDTLHLIGEHHDGVSKANFSIGPMMQDLAGTYRCYGSVTHSPYQLSAPSDPLDIVITGLYEKPSLSAQPGPTVLAGESVTLSCSSRSSYDMYHLSREGEAHERRFSAGPKVNGTFQADFPLGPATHGGTYRCFGSFRDSPYEWSNSSDPLLVSVTGNPSNSWPSPTEPSSETGNPRHLHVLIGTSVVIILFILLLFFLLHRWCCNKKNAVVMDQEPAGNRTVNREDSDEQDPQEVTYAQLNHCVFTQRKITRPSQRPKTPPTDIIVYTELPNAEP
chain 2: not shown
chain 3: not shown
chain 4: RYRPGTVAL
B4: FLAG-tagged KIR2DL3, full-length, wild type, on 293T cells [human] / HLA-C*03:04-GL9 tetramer (phycoerythrin-conjugated) [modified: biotin (enzymatically, with biotin ligase)] [human] (parent complex)
chain 1: B3 chain 1
chain 2: not shown
chain 3: not shown
chain 4: GAVDPLLAL

The variants in one assay derive from B1. The assay can be described thus: flow cytometry, HLA tetramer staining of transfected 293T cells; percentage tetramer+ normalised to percentage FLAG+; read off a plot.
As to chain 1 D72A, the ratio to parent is about 1.1. The same measure, in the same setting: with chain 1 E106A the figure was about 0.93. Take chain 1 Y105A: the ratio to parent was about 0.01. The same measure, in the same setting: the figure for chain 1 S133A is about 0.17; for chain 1 K44A it is about 0.95. Same read-out and setting: the figure for chain 1 L104A is about 0.02; for chain 1 F45A it is about 0.03; for chain 1 E21A it is about 0.88. On the same count and under the same terms, the figure for chain 1 S132A is about 1; for chain 1 M70A it is about 1.

For chain 1 D135A, the ratio to parent is about 0.03. Same read-out and setting: the figure for chain 1 D183A is about 0.02.

The variants in the next assay derive from B2. Described as above.
As for chain 1 Y105A, the ratio to parent was about 0.01. The same measure, in the same setting: the figure for chain 1 L104A is about 0.67; for chain 1 K44A it is about 1.1. On the same count and under the same terms, the figure for chain 1 E21A is about 1.

For the variant chain 1 M70A, the ratio to parent was about 0.92. On the same count and under the same terms, with chain 1 E106A the figure was about 1.2; with chain 1 D183A, about 0.67; with chain 1 F45A, about 1.1.

For the variant chain 1 D135A, the ratio to parent is about 1.2.

With chain 1 D72A, the ratio to parent is about 1.3.

For chain 1 S132A, the ratio to parent was about 1. The same measure, in the same setting: the figure for chain 1 S133A is about 1.2.

The variants in a further assay derive from B3. Described as above.
Take chain 1 E21A: the ratio to parent was about 0.97. The same measure, in the same setting: the figure for chain 1 F45A is about 0.72.

Consider chain 1 S132A, for which the ratio to parent was about 1.1. In the case of chain 1 D72A, the ratio to parent is about 1.1. Same read-out and setting: with chain 1 Y105A the figure was about 0.02; with chain 1 D183A, about 0.33. For chain 1 L104A, the ratio to parent is about 0.4. For chain 1 S133A, the ratio to parent was about 1.2. On the same count and under the same terms, with chain 1 E106A the figure was about 0.85; with chain 1 D135A, about 0.57.

With chain 1 M70A, the ratio to parent is about 1.3. On the same count and under the same terms, with chain 1 K44A the figure was about 0.9.

Another assay covers variants of B4. The description is as above.
On to chain 1 D72A, for which the ratio to parent is about 1. On the same count and under the same terms, with chain 1 E106A the figure was about 0.82; with chain 1 D183A, about 0.05; with chain 1 L104A, about 0.05. Same read-out and setting: with chain 1 Y105A the figure was about 0.02; with chain 1 D135A, about 0.1; with chain 1 E21A, about 0.92. On the same count and under the same terms, the figure for chain 1 S132A is about 1.2; for chain 1 K44A it is about 0.6; for chain 1 M70A it is about 1.1.

chain 1 F45A: the ratio to parent was about 0.04. On to chain 1 S133A, for which the ratio to parent is about 0.57.
